The record followed here is the nanobody polyreactivity screen of Harvey et al. (2022).

This data set can be described thus: yeast display, Sf9 membrane polyspecificity reagent, FACS + sequencing; frameworks hold sequencing errors. In short, it runs like this: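 Galactose induction of a Saccharomyces cerevisiae BJ5465 synthetic nanobody display library ran 36–48 hours. The cells were then stained for 1 hour at 4 °C with 10% biotinylated, detergent-solubilized Sf9 membrane reagent, pulled down on streptavidin microbeads and FACS-sorted into low and high (top ~1%) gates on expression and reagent-binding fluorescence. Labels for polyreactivity follow the gate of origin.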
Take “QVQLEESGGGLVQAGGSLRLSCAASGRTFNKNAMGWYRQAPGKERELVAAISYSGGRTYYADSVKGRFTISRDNAKNTVYLQMNSLKPEDTAVYYCAAWGSSYSFDYWGQGTQVTVSS”: the “polyreactivity (PSR sort gate)” value is given as “high polyreactivity”.

Take “QVQLEESGGGLVQAGGSLRLSCAASGRTFSGYAMGSYRQAPGKDRELVAAITRRGGTTYYADSVKGRFTISRDNAKNTVYLQMNSLKPEDTAVYYCAAAKPRVISQKIIYYYWGQGTQVTVSS”: the “polyreactivity (PSR sort gate)” value is “high polyreactivity”.

Turning to “QVQLEESGGGLVQAGGSLRLSCAASGRTFVWYAMGWYRQAPGKERELVAAISRSGGSTYYADSVKGRFTISRDNAKNTVYLQMNSLKPEDTAVYYCAAEFYIAPPYDYWGQGTQVTVSS”, the “polyreactivity (PSR sort gate)” value is on record as “high polyreactivity”.

As for “QVQLEESGGGLVQAGGSLRLSCAASGRTFWDNARGWNRQAPGKERELVATITSGDSTNYAASVKGRFTISRDNAKNTVYLQMNSLKPEDTAVYYCARVIVFDAYEFDYWGQGTQVTVSS”, the “polyreactivity (PSR sort gate)” value is reported as “low polyreactivity”.

As to “QVQLEESGGGLVQAGGSLRLSCAASGRTFYRYAMGWYRQAPGKERELVATISSRGTSTYYADSVKGRFTISRDNAKNTVYLQMNSLKPEDTAVYYCAVRGYAAGRHGYDYWGQGTQVTVSS”, the “polyreactivity (PSR sort gate)” value is on record as “high polyreactivity”.

With “QVQLEESGGGLVQAGGSLRLSCAASGRTINGNTMGWYRQAPGKERELVAVIDWSGGSTYYADSVKGRFTISRDNAKNTVYLQMNSLKPEDTAVYYWNAETRDPILYGEYDYWGQGTQVTVSS”, the “polyreactivity (PSR sort gate)” value is “low polyreactivity”.

“QVQLEESGGGLVQAGGSLRLSCAASGRTLGYNAMGWYRQAPGKERELVAAISYGGGGTYYADSVKGRFTISRDNAKNTVYLQMNSLKPEDSAVYYCAKPRAFVGYNHWGQGTQVSVSS”: the “polyreactivity (PSR sort gate)” value was “low polyreactivity”.

In the case of “QVQLEESGGGLVQAGGSLRLSCAASGSIFAVYAKGWYRQAPGKEREFVARISWGGGRTYYADSVKGRFTISRDNAKNTVYLQMNSLKPEDTAVYYCAATFRARPRENYWGQGTQVTVSS”, the “polyreactivity (PSR sort gate)” value is reported as “high polyreactivity”.

Take “QVQLEESGGGLVQAGGSLRLSCAASGSIFDPNAMGWYRKAPGKERELVADIDSSDGSTYYADSVKGRFTISRDNAKNTVYLQMNSLKPEDTAVYYCNARYGGWVWSTYDHWGQGTQVTVSS”: the “polyreactivity (PSR sort gate)” value is reported as “low polyreactivity”.

On to “QVQLEESGGGLVQAGGSLRLSCAASGSIFEWNDMGWSRQAPGKEREFVAAITSTDDGTYYADSVKGRFTISRDNAKNTVYLQMNSLKPEDTAVYYCAKRAWGSPYGYWGQGTQVTVSS”, for which the “polyreactivity (PSR sort gate)” value is given as “low polyreactivity”.

Regarding “QVQLEESGGGLVQAGGSLRLSCAASGSIFIANAMGWYRQAPGKERELVAVINWGDGSTYADSVKGRFTISRDNAKNTVYLQMNSLKPEDTAVYYCNAPDEVNDVRYDYWGQGTQVTVSS”, the “polyreactivity (PSR sort gate)” value is “low polyreactivity”.

As for “QVQLEESGGGLVQAGGSLRLSCAASGSIFQINAMGWYRQAPGKERELVAAITRGGGTTYYADSVKGRFTISRDNAKNTVYLQMNSLKPEDTAVYYCAADFERRRYDYWGQGTQVTVSS”, the “polyreactivity (PSR sort gate)” value was “low polyreactivity”.

As for “QVQLEESGGGLVQAGGSLRLSCAASGSIFRYNAMGWYRQAPGKERELVAAITSGDSTYYADSVKGRFTISRDNAKNTVYLQMNSLKPEDTAVYYCAADLRYIYWSYYYWGQGTQVTVSS”, the “polyreactivity (PSR sort gate)” value was “low polyreactivity”.

As to “QVQLEESGGGLVQAGGSLRLSCAASGSIFSYYVMGWYRQAPGKERELVARNSKRGVTTYYADSVKGRFTISRDNAKNTVYLQMNSLKPEDTAVYFCAASVWRDRIYRYEYWGQGTQVTVSS”, the “polyreactivity (PSR sort gate)” value is on record as “high polyreactivity”.

Turning to “QVQLEESGGGLVQAGGSLRLSCAASGSIFVYYRMGWYRQAPGKERELVAAISSGGSTHYADSVKGRFTISRDNAKNTVYLQMNSLKPEDTAFYYRNDRAYGNGMGTGYFGKHRYDYWGQGTQVTVSS”, the “polyreactivity (PSR sort gate)” value is reported as “low polyreactivity”.

Take “QVQLEESGGGLVQAGGSLRLSCAASGSIFYYYVMGWCRQAPGKERELVAAISSGGGTNYADSVKGRFTISRDNAKNTVYLQMNSLKPEDTAVYYCAKASAYGLANDYDYWGQGTQVTVSS”: the “polyreactivity (PSR sort gate)” value was “low polyreactivity”.

Turning to “QVQLEESGGGLVQAGGSLRLSCAASGSILFFNAKGWYRQAPGKERELVADISTGGSTYYADSVKGRFTISRDNAKNTVYLQMNSLKPEDTAVYYCNADYYYFFYTLDYWGQGTQVTVSS”, the “polyreactivity (PSR sort gate)” value is given as “high polyreactivity”.

Turning to “QVQLEESGGGLVQAGGSLRLSCAASGSILIYNAMGLYRQATGKERELVAGISRRGASTYYADSVKGRFTISRDYAKNTVYLQMNSLKPEDTAVYYCATRKLRTRGYDYGYWGQGTQVTVSS”, the “polyreactivity (PSR sort gate)” value is recorded as “low polyreactivity”.

Take “QVQLEESGGGLVQAGGSLRLSCAASGSILLGYDMGWYRTAPGKERELVASIDTNGGSPYYADSVKGRFTISRDNAKNTVYLQSNSLKPEDTAVYYCNADPSFVGGTYDYWGQGTQVTVSS”: the “polyreactivity (PSR sort gate)” value was “low polyreactivity”.

As for “QVQLEESGGGLVQAGGSLRLSCAASGSTFFLYAMGWYRQAPGKERELVAAITYTDGDTYYADSVKGRFTISRDNAKNTVYLQMNSLKPEDTAVYYCNAGGDEPVYGSGYDYWGQGTQVTVSS”, the “polyreactivity (PSR sort gate)” value was “low polyreactivity”.

In the case of “QVQLEESGGGLVQAGGSLRLSCAASGSTFGRNTLGSYRPAPGKERELVAVISRRGGITTYADSVKGRFTISRENAKNTVYLQMNSLKPVDTAVYYCNAVSRVYNKGQYGYWGQGTQVSVSS”, the “polyreactivity (PSR sort gate)” value is on record as “high polyreactivity”.
